Test results reported in the supplement of paper PMC9170038.

System: MS2 coat protein
Assay: apparent KD of MS2 coat protein, switch OFF state (with FMN for OFF switches, without FMN for ON switches); designed switch direction (-1 OFF switch, 1 ON switch): -1; higher = weaker reporter binding
Details: FMN input: 0 or 200 uM; Eterna round: R93 (includes R88 designs)
Outline: (§1)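 The designed RNA switches were transcribed on-chip from Illumina sequencing clusters. In 100 mM Tris-HCl pH 7.5, 80 mM KCl and 4 mM MgCl2, without or with constant ligand, they were titrated with SNAP-549-labelled MS2 coat protein from 0.7 or 1.5 nM to 3 µM in twofold steps. Apparent KD is the per-design median of normalised cluster binding-curve fits.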

| Sequence | apparent KD of MS2 coat protein [nM] |
| --- | --- |
| AAUGGUGCAGGAUAUACAUGAGGAUCACCCAUGUACAUCAGACAUAUGGUCGAAGCAUGUAGAAGGGCACCAAA [Ex 3May 56] | 183 |
| AGCUAGUCAGGAUAUGCGAAUAUGUCAAAAGACGUGAAGGGACAUGAGGAUCACCCAUGUAGAAGGGACUAGCA [Diamond 3] | 36.5 |
| UAAAGACAUGAGGAUCACCCAUGUGAGGAUAUCGGUGACUAUAAAAAAAAAUAGUCACCGAGAAGGCACAGAAA [JR_Exc001_Sub301] | 117 |
| AAUAAGUGAGGAUAUGGAAAUAGUAGAUAAGAUUCCCUAAACCAGAAGGCACAUGAGGAUCACCCAUGUAAAUA [JR_Exc004_Sub005] | 26.4 |
| GAAAAGGCAGGAUAUGCAGGAUAUAGAAGGAGGAUAUAGAGACAUGAGGAUCACCCAUGUAGAAGGGCCAAAAG [salish99-ex2-11] | 32.3 |
| AAAAAACAUGAGGAUCACCCAUGUCAGGAUAUCUGUAUUCAAUCCUCGGAUUGAAUACAGAGAAGGGACAUAAA [Ex1: 605] | 126 |
| AAAAAGGGAGGAUAUACGAAAUAGGGAAACCUAAAAAAGGGACAUGAGGAUCACCCAUGUAGAAGGCCCAAGAA [Clint Eastwood 64% 6] | 223 |
| AACAUGUCAGGAUAUGUAGUAAAAAGUGAUCCUCAUAAACUACAGAAGGGACAUGAGGAUCACCCAUGUAAAAA [Ex4: 930] | 21.3 |
| AAAAAGUCAGGAUAUGCGAAGGCGUCUGAUAGACGAGGCUAGCAGAAGGGACAUGAGGAUCACCCAUGUAAAAA [Mat - Mod of Nando] | 45 |
| AAGAACGGAGGAUAUACAAAAUAAAAGAAAAGAAAGAAAGAACAUGAGGAUCACCCAUGUAGAAGGCUGAAGAA [Merneferre Ay I] | 35.2 |
| AAAAGGUCAGGAUAUGCCCACCUGGUGGAAAAACCAGGUGGGCAGAAGGGACAUGAGGAUCACCCAUGUAAAAA [Excls4-Ii] | 78.2 |
| AAGCUGGUAGGAUAUACUAGGGCAACUAAUGCACCGAUAGGACAUGAGGAUCACCCAUGUAGAAGGGCCAGAAA [JR_Exc002_Sub404] | 137 |
| AAAAAGAGAGGAUAUACAUGAGGAUCACCCAUGUGAAAAAAAAAAAAAGGGAAAAGAUGUAGAAGGCUCAAAAA [65%, Moding Exclusion3-cac2, 16] | 32.1 |
| AGUUAGCGAGGAUAUACAUGAGGAUCACCCAUGUGAGAGAAAAAAGUGAGAAAGAAAAGUAGAAGGCGCUAACA [Moding Norbert Elias (73)] | 119 |
| AAAGGACAUGAGGAUCACCCAUGUGAGGAUAUGCUCUACGAACGAAUACACAUGAGAAGCAGAAGGCACAUAAG [try 1] | 142 |
| AAGGGACAUGAGGAUCACCCAUGUCAGGAUAUGCAAACAACAAACAACAAACAACAAAGCAGAAGGGACAAAAA [63%, Olong, 5] | 24.1 |
| AACUAGUCAGGAUAUACGAACAUGUCAAAAAACAUAAAGGGACAUGAGGAUCACCCAUGUAGAAGGGACUAGCA [74%, Web mod - With 4 less G's] | 262 |
| CAAAAACAUGAGGAUCACCCAUGUGAGGAUAUACGAAAGUAGAAGGCACUAAAACAAAACAGAAGGACAAAACA [Meechl Ex1 R2 m3] | 24.6 |
| AGCUUCAGAGGAUAUACUUGAGUGAUAAAAGUCUGAUAACUACAUGAGGAUCACCCAUGUAGAAGGCUGUAGCA [Ex2 Design 168: Sub-opt 32] | 46 |
| AAUAAGUGAGGAUAUGUGAAUAGAAGAUAAGAUACCCAAAAACAGAAGGCACAUGAGGAUCACCCAUGUAAAUA [JR_Exc004_Sub009] | 24.3 |

| Sequence | apparent KD of MS2 coat protein [nM] |
| --- | --- |
| CAUAAACAUGAGGAUCACCCAUGUGAGGAUAUGAUAUUACUAGGACGGCUGUAAUCAAUCAGAAGGCACAUCAA [JR_Exc--1_Sub1206] | 41.5 |
| AAAAAGCGAGGAUAUGCAAGAAAAAAAAAAAAAAAAAAGGGACAUGAGGAUCACCCAUGUAGAAGGCGCAAAAA [Diamond 65] | 38 |
| AGUUGGCGAGGAUAUACAUGAGGAUCACCCAUGUGAGAGAAAAAAGUGAGAAAGAAAAGUAGAAGGCGCUCACA [JL Lego Mod 12] | 49.7 |
| AAGAACGUAGGAUAUACAUGAGGAUCACCCAUGUAAAAGAAAGAAAGGGAAAAGAAAAGUAGAAGGACGAAGAA [Hedjkheperre-setepenre Shoshenq I] | 77.9 |
| AAAAAACAUGAGGAUCACCCAUGUCAGGAUAUCUGUAUUCAAUCCUCGGAUUGAAUACAGAGAAGGGACAUGGG [Ex1: 601] | 18 |
| AGAAAACAUGAGGAUCACCCAUGUCAGGAUAUCUAAAAGAAAAGAAAAGAAAGAAGAAGGAGAAGGGACAAGAA [Djoser] | 21.8 |
| AAAAAACAUGAGGAUCACCCAUGUGAGGAUAUGAAAAUACUAAGACAACUGUAAUCAAUCAGAAGGCACAACAA [JR_Exc--1_Sub1208] | 19.6 |
| GCUGUGGAAGGAUAUACAUGAGGAUCACCCAUGUGAGAGAAAAAAGUGAGAAAGAAAAGUAGAAGGUCCGUAGG [salish99-ex3-98] | 66 |
| GAAAAGUCAGGAUAUGUACAAAAUAAAAUAAAAAUAAAAGUACAGAAGGGACAUGAGGAUCACCCAUGUAAAAA [Mat - Exclusion 4 - Mayanna - D119] | 49.8 |
| ACCAGACAUGAGGAUCACCCAUGUCAGGAUAUGCAUCUUAGGAAAAAAAAACUAAGAUGCAGAAGGGACAAGGG [Design 5: Super Stable - A-U mutation] | 20.1 |
| AAGAACUGAGGAUAUACAAAAUAAAAGAAAAGAAAGAAAGAACAUGAGGAUCACCCAUGUAGAAGGCAGAAGAA [Sekhemre Khutawy Sobekhotep I] | 19.7 |
| AAAAAACAUGAGGAUCACCCAUGUCAGGAUAUGCUCAACAAUAUUCCAAAAAAGAACGGUAGAAGGGACAGGAA [Bilbo Confounded 25 - Jieux - Exclusion 1] | 22.3 |
| AAAAAACAUGAGGAUCACCCAUGUCAGGAUAUCCGGUUCUUAAAAAAAAAGAGGCGUUGGAGAAGGGACAUUCC [Chica Displaced 12 - Jieux - Exclusion 1] | 41.7 |
| AAAAAGUGAGGAUAUUCGGAAGGGAAAGCGCAAACCCAACCGAAGAAGGCACAUGAGGAUCACCCAUGUGGAAG [Mat - Exaclusion 4 - Eli mod - D57] | 30.2 |
| CUCAAGUGAGGAUAUCAGUAGUAAAAAAAUAAAAUUACUACUGAGAAGGCACAUGAGGAUCACCCAUGUGCAAA [EX4 336: Super Stable 36] | 17 |
| AACAGUACAGGAUAUACAUGAGGAUCACCCAUGUGGGAGAAAAGAUCGAGAGAUCAAUGUAGAAGGGUACUGGA [JL In the Red 07] | 80.1 |
| AAGAAGUGAGGAUAUCGAAGACAGACGAAAAGUCUGUCAAACGAGAAGGCACAUGAGGAUCACCCAUGUGGAAA [What have we learned so far? 64% 4] | 34.6 |
| AAAAAACAUGAGGAUCACCCAUGUAAGGAUAUGCUGAAAAACACGGAAAAAACGUGCAGCAGAAGGUACAAAGA [Mat - Exclusion 1 - Eli mod - D96] | 39.9 |
| AAGGAUCGAGGAUAUACAUAGAUACAGAUACAUGUAGAACUACAUGAGGAUCACCCAUGUAGAAGGCGAUCAUA [AJ 30] | 56.3 |
| ACAUCUAGAGGAUAUACAUGGAAAAAAAAAAAAAAAAAACUACAUGAGGAUCACCCAUGUAGAAGGCUAGAUGA [Ex2 Design 192: Random 12] | 35.7 |

System: MS2 coat protein
Assay: apparent KD of MS2 coat protein, switch OFF state (with FMN for OFF switches, without FMN for ON switches); designed switch direction (-1 OFF switch, 1 ON switch): 1; higher = weaker reporter binding
Details: FMN input: 0 or 200 uM; Eterna round: R93 (includes R88 designs)
Outline: as §1

| Sequence | apparent KD of MS2 coat protein [nM] |
| --- | --- |
| GAAAAACAUGAGGAUCACCCAUGUAGAGAUAUGGGAGGAUAUACGAAGACGAAAGACGAUGUAGAAGGCCUAAAAG [Garnet 59] | 234 |
| AAACAGAUAGGACAGGAUAUGUCGUGAUAAACAUGAGGAUCACCCAUGUGAGACAUCACGUAAUCGCAGAAGGGUCCCGUCUUAC [Usonsoave] | 12.7 |
